Results as given in PMC2790157.

Biological target: NF-kB p50 (UniProt P19838 1-433)
Experiment: EMSA

NF-kB p50, sequence (P19838 1-433): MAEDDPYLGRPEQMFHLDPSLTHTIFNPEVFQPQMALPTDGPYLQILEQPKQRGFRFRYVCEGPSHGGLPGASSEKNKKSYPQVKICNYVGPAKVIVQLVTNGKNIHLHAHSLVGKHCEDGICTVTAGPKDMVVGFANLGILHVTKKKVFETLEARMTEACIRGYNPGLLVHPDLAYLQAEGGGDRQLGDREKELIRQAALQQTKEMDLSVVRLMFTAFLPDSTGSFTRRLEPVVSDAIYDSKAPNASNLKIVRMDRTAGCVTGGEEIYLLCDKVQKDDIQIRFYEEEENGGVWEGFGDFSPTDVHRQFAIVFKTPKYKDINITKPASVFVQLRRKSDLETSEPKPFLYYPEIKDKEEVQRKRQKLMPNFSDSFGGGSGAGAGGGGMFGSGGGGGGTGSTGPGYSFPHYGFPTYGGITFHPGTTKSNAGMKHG

| Binder | binding result |
| --- | --- |
| NF-kB consensus (dsDNA) DNA 1: AGTTGAGGGGACTTTCCCAGGC DNA 2: GCCTGGGAAAGTCCCCTCAACT | binds |
| ING2 promoter putative NF-kB site (dsDNA) DNA 1: CGCCGAGGGGATCCCCACTGCT DNA 2: AGCAGTGGGGATCCCCTCGGCG | binds |
